The record followed here is US6410715 (QUESTCOR PHARMACEUTICALS, dated 2002).

The target in experiment [1] is 4E-BP1 prepared from untreated rat adipose tissue (rat) (UniProt Q62622). The experiment in a line: far-Western on blotted heat-stable adipose tissue proteins, pool 3, no insulin.
Experiment [2] deals with 4E-BP1 prepared from insulin-treated rat adipose tissue (rat) (UniProt Q62622). The experiment in a line: far-Western, pool 3, insulin-treated against untreated tissue of the same pool.
Sequence of 4E-BP1 prepared from insulin-treated rat adipose tissue (rat) (Q62622 2-117 limits assumed): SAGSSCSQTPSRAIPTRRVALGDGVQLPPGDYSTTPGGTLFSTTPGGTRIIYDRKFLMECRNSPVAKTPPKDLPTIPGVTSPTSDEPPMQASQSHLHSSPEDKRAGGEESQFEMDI
Experiment [3] addresses 4E-BP1 prepared from untreated rat adipose tissue (rat) (UniProt Q62622). Put plainly: far-Western on blotted heat-stable adipose tissue proteins, pool 2, no insulin.
Experiment [4] deals with 4E-BP1 prepared from insulin-treated rat adipose tissue (rat) (UniProt Q62622). Put plainly: far-Western, pool 1, insulin-treated against untreated tissue of the same pool.
For experiment [5] the target is unchanged. Put plainly: far-Western on blotted heat-stable adipose tissue proteins, pool 3, insulin 80 nM.
For experiment [6] the target is unchanged. Put plainly: far-Western, pool 2, insulin-treated against untreated tissue of the same pool.
Experiment [7] has the same target. The experiment in a line: far-Western on blotted heat-stable adipose tissue proteins, pool 1, insulin 80 nM.
Experiment [8] addresses 4E-BP1 prepared from untreated rat adipose tissue (rat) (UniProt Q62622). Put plainly: far-Western on blotted heat-stable adipose tissue proteins, pool 1, no insulin.
Experiment [9] concerns the target 4E-BP1 prepared from insulin-treated rat adipose tissue (rat) (UniProt Q62622). The experiment in a line: far-Western on blotted heat-stable adipose tissue proteins, pool 2, insulin 80 nM.
The target in experiment [10] is eIF-4E of human HTK-143 cells (human) (UniProt P06730). The experiment in a line: cell-based or functional assay.
Sequence of eIF-4E of human HTK-143 cells (human) (P06730 2-217 limits assumed): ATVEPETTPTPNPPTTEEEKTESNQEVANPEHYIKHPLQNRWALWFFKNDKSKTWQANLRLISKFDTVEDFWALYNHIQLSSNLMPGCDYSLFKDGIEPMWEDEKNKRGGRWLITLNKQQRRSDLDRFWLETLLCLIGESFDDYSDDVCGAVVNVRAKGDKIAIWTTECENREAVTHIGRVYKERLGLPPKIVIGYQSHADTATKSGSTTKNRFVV
Experiment [11] concerns the target eIF-4E of rabbit reticulocyte lysate (rabbit, UniProt P29338 2-217). Put plainly: cell-based or functional assay.

Sequence of 4E-BP1 prepared from untreated rat adipose tissue (rat) (Q62622 2-117 limits assumed): as the sequence (Q62622 2-117 limits assumed) above
Sequence of eIF-4E of rabbit reticulocyte lysate (P29338 2-217 limits assumed): as the sequence (P06730 2-217 limits assumed) above, with T15P, T16A, E173D counted along it

Take 32P-labelled HMK-eIF-4E probe: the Relative amount of HMK-eIF-4E bound (relative amount (Phosphorimager)) in [1] came out at 214; in [3], 210; in [5], 60; in experiment [7], 41; in [8], 152; in [9], 70. Also, the Fold reduction was found to be 3.6 fold in [2], 3.7 fold in experiment [4] and 3 fold in experiment [6].

In experiment [10], “4E-BP2 (human, protein of 120 amino acids)” gave a CAT (%), cap-dependent expression from pGEMCAT/EMC/LUC in HTK-143 cells co-transfected with pRc/CMV/4E-BP2 (% of reporter plasmid alone) of 26; a CAT (%), cap-dependent expression from pGEMCAT/polio/LUC in HTK-143 cells co-transfected with pRc/CMV/4E-BP2 (% of reporter plasmid alone) of 24; an inhibition of CAT expression in transfected HTK-143 cells of 4 to 5 fold.

With “4E-BP1 (human, protein of 118 amino acids)”, in experiment [10], the CAT (%), cap-dependent expression from pGEMCAT/EMC/LUC in HTK-143 cells co-transfected with pRc/CMV/4E-BP1 (% of reporter plasmid alone) came to 28; the CAT (%), cap-dependent expression from pGEMCAT/polio/LUC in HTK-143 cells co-transfected with pRc/CMV/4E-BP1 (% of reporter plasmid alone) was found to be 22; the inhibition of CAT expression in transfected HTK-143 cells was 4 to 5 fold.

B1: GST-4E-BP2 fusion protein (other, not shown: a dimerising Fc or GST; large carriers; small tags and cut ends)
chain: MSSSAGSGHQPSQSRAIPTRTVAISDAAQLPHDYCTTPGGTLFSTTPGGTRIIYDRKFLLDRRNSPMAQTPPCHLPNIPGVTSPGTLIEDSKVEVNNLNNLNNHDRKHAVGDDAQFEMDI
On to B1, for which the “inhibition of translation of CAT (cap-dependent)” value in experiment [11] is around 5 fold.
